B1: Peripheral plasma membrane protein CASK, residues 488 to 569; numbered along this chain, O14936 (parent)
chain: VRLVQFQKNTDEPMGITLKMNELNHCIVARIMHGGMIHRQGTLHVGDEIREINGISVANQTVEQLQKMLREMRGSITFKIVP

This passage reports abundance fitness results from the Human Domainome abundance scans (Beltran et al. 2025).

± gives the uncertainty stated by the source.

The data set covers variants of B1. Briefly: abundance fitness (aPCA) (normalised: wild type 0, dead -1); higher = more abundant; growth selection in yeast, the domain comes from the species named. Conditions: Homo sapiens.
As for L65K, the abundance fitness was -0.878 ± 0.081. In the case of L65C, the abundance fitness was -0.048 ± 0.036.

On to L65A, for which the abundance fitness was -0.166 ± 0.027. Then L65D, with -1.07 ± 0.17; and L65T, with 0.006 ± 0.031. To E63Q belongs -0.009 ± 0.032. Then R70A, with 0.012 ± 0.024. As for T17A, the abundance fitness is -0.079 ± 0.024. Then E71S, with -0.013 ± 0.029; and E71K, with 0.004 ± 0.037; and E71V, with -0.034 ± 0.025. To E71F belongs 0.013 ± 0.051. Regarding L43E, the abundance fitness was -0.774 ± 0.049. To L43W belongs -0.662 ± 0.041. Then F78N, with -0.922 ± 0.16; and F78G, with -0.886 ± 0.1. Turning to V57H, the abundance fitness is -0.818 ± 0.096. To V57Y belongs -0.578 ± 0.072; to V57W, -0.854 ± 0.047; to T61K, -0.054 ± 0.035. Turning to V81Y, the abundance fitness was -0.035 ± 0.038. Regarding V81Q, the abundance fitness was -0.001 ± 0.048. In the case of V81W, the abundance fitness is -0.102 ± 0.046. For the variant V81S, the abundance fitness is -0.044 ± 0.032. To N9I belongs -0.015 ± 0.042; to N9W, -0.081 ± 0.025; to N9Y, -0.088 ± 0.039. To L23I belongs 0.054 ± 0.057; to L23N, -0.038 ± 0.051.

With R50M, the abundance fitness was 0 ± 0.054.

Take R50K: the abundance fitness is 0.028 ± 0.045. Then R50N, with -0.054 ± 0.092; and Q40H, with -0.096 ± 0.041. Then I49P, with -0.743 ± 0.15; and D47N, with -0.497 ± 0.1; and G15H, with -0.549 ± 0.057. To I37L belongs -0.103 ± 0.025. As to I37Q, the abundance fitness was -0.43 ± 0.045.

In the case of A58H, the abundance fitness is -0.075 ± 0.049. Then A58T, with -0.017 ± 0.031. For the variant G35A, the abundance fitness is -0.098 ± 0.026. G35L: the abundance fitness is -0.268 ± 0.027.

Turning to G35Y, the abundance fitness was -0.134 ± 0.054. For the variant N53L, the abundance fitness was -0.903 ± 0.12.

Regarding I16T, the abundance fitness was -0.659 ± 0.073. To I16C belongs -0.143 ± 0.058; to I16E, -0.932 ± 0.13. In the case of V28T, the abundance fitness is -0.651 ± 0.051. V28A: the abundance fitness was -0.479 ± 0.032. For the variant T10D, the abundance fitness is -0.026 ± 0.057. Then T10I, with -0.081 ± 0.06; and T10L, with -0.05 ± 0.033. With T10V, the abundance fitness is -0.113 ± 0.028.

Turning to K79S, the abundance fitness is 0.014 ± 0.033. Take K79L: the abundance fitness is -0.09 ± 0.029. Then K79E, with -0.113 ± 0.066; and V62C, with -0.044 ± 0.032; and V62P, with -0.032 ± 0.031. V62Q: the abundance fitness is -0.068 ± 0.034. Then V62Y, with -0.172 ± 0.041; and V62W, with -0.154 ± 0.026. Take V62F: the abundance fitness is -0.238 ± 0.052. To C26S belongs -0.732 ± 0.043. To M72E belongs -0.085 ± 0.028.

Regarding M72R, the abundance fitness was -0.14 ± 0.021. Then M72V, with -0.008 ± 0.023; and N24P, with -0.922 ± 0.066; and N24D, with -0.024 ± 0.033. To N24R belongs -0.064 ± 0.02; to N24A, -0.14 ± 0.023; to G54Y, -0.056 ± 0.24.

As for G54S, the abundance fitness is -0.071 ± 0.037.

Turning to R30D, the abundance fitness is -0.012 ± 0.063.

On to G34K, for which the abundance fitness is -0.177 ± 0.064.

Take G34L: the abundance fitness was -0.261 ± 0.042. To M20N belongs -0.16 ± 0.076; to M20Y, -0.01 ± 0.066. On to I80P, for which the abundance fitness is -0.921 ± 0.08. I80H: the abundance fitness is -0.623 ± 0.073. I80L: the abundance fitness is -0.113 ± 0.028.

Take I27T: the abundance fitness was -0.021 ± 0.03.

With G46N, the abundance fitness was -0.128 ± 0.072. G46R: the abundance fitness is -0.669 ± 0.041. Then A29N, with -0.201 ± 0.087. Take A29P: the abundance fitness is -0.936 ± 0.15. For A29F, the abundance fitness is -0.362 ± 0.13. Then I76G, with -0.157 ± 0.023. To V1S belongs -0.095 ± 0.038. To V1A belongs -0.119 ± 0.033; to H25F, -0.194 ± 0.05; to H25I, -0.073 ± 0.047. As to G41M, the abundance fitness was -0.233 ± 0.036. To R73L belongs -0.113 ± 0.026. To I31R belongs -0.869 ± 0.052. Then K19E, with -0.029 ± 0.037.

With Q60T, the abundance fitness was -0.09 ± 0.029. To Q60H belongs -0.014 ± 0.042.

For Q60A, the abundance fitness was -0.045 ± 0.024.

For N21M, the abundance fitness was -0.258 ± 0.033.

H38S: the abundance fitness is -0.052 ± 0.028. On to H38E, for which the abundance fitness amounted to 0.048 ± 0.027. Consider H38R, for which the abundance fitness was -0.209 ± 0.023. Turning to H38I, the abundance fitness was -0.295 ± 0.066. M68K: the abundance fitness is 0 ± 0.031. Regarding M68N, the abundance fitness was -0.012 ± 0.051. To H33K belongs 0.01 ± 0.04; to H33G, -0.054 ± 0.025; to L18C, -0.262 ± 0.045. L18S: the abundance fitness is -0.699 ± 0.063. Then K67P, with -0.292 ± 0.04; and K67H, with 0.029 ± 0.057; and K67C, with 0.013 ± 0.035. Regarding E22S, the abundance fitness is -0.022 ± 0.031.

With E22I, the abundance fitness is -0.185 ± 0.067. Take E22Q: the abundance fitness worked out at 0.008 ± 0.039. On to E22F, for which the abundance fitness is -0.277 ± 0.074. Then E22K, with -0.004 ± 0.042. Turning to T77H, the abundance fitness was -0.194 ± 0.055. Turning to T77F, the abundance fitness was -0.019 ± 0.059. For the variant T77M, the abundance fitness was -0.309 ± 0.22. As for T77S, the abundance fitness is -0.002 ± 0.035. For I55F, the abundance fitness was -0.065 ± 0.047.

Take I55L: the abundance fitness was -0.041 ± 0.025. Then I55K, with -0.001 ± 0.03; and Q66V, with -0.141 ± 0.024; and Q66K, with -0.128 ± 0.034. In the case of Q66N, the abundance fitness was -0.016 ± 0.047. Then N59D, with -0.038 ± 0.034; and N59T, with 0.003 ± 0.033. To N59K belongs -0.068 ± 0.039; to Q64Y, 0.005 ± 0.038. To Q64V belongs -0.061 ± 0.021.

In the case of Q64C, the abundance fitness was -0.004 ± 0.028. As to Q64E, the abundance fitness was -0.008 ± 0.026. With M32K, the abundance fitness was 0.042 ± 0.039. To M32D belongs 0.051 ± 0.055; to R2N, 0.091 ± 0.057; to R2K, -0.055 ± 0.036. With F6R, the abundance fitness was -0.673 ± 0.029. Take F6W: the abundance fitness was -0.251 ± 0.025. For the variant D11Q, the abundance fitness came to 0.021 ± 0.05. Turning to D11R, the abundance fitness was -0.023 ± 0.029. For D11A, the abundance fitness is -0.027 ± 0.031. Then D11E, with -0.05 ± 0.03. D11Y: the abundance fitness was -0.22 ± 0.077. To L69Q belongs -0.594 ± 0.045; to L69C, -0.093 ± 0.035.

With R39F, the abundance fitness is -0.34 ± 0.051. Then H44I, with -0.188 ± 0.049. Then H44L, with -0.142 ± 0.025; and H44K, with 0.007 ± 0.032. To T42F belongs -0.021 ± 0.037. As for L3C, the abundance fitness was -0.198 ± 0.038. Consider L3S, for which the abundance fitness is -0.026 ± 0.028.

Regarding L3E, the abundance fitness is 0.094 ± 0.029.

Take E51V: the abundance fitness was -0.714 ± 0.3. Turning to E51A, the abundance fitness was -0.096 ± 0.11. Regarding E51G, the abundance fitness was -0.048 ± 0.32.

As to V45D, the abundance fitness was -0.178 ± 0.079. For V45I, the abundance fitness was -0.046 ± 0.047. Turning to P82E, the abundance fitness was -0.047 ± 0.076. Then P82S, with -0.021 ± 0.035; and P82N, with -0.048 ± 0.084. Then K8F, with -0.291 ± 0.051; and K8Q, with 0.004 ± 0.031; and S56P, with 0.009 ± 0.031.

Consider S56K, for which the abundance fitness amounted to 0.02 ± 0.033.
